Measured values published in publication PMC7296103, “Live Cell Imaging Demonstrates Multiple Routes Toward a STAT1 Gain-of-Function Phenotype” (Frontiers in Immunology, 2020).
Substitutions are numbered along the chain they refer to. Names and notes keep the numbering of the source. Like-named read-outs stand apart in the source and are kept apart here.

T1: STAT1-GFP wild type, P42224
T1 chain: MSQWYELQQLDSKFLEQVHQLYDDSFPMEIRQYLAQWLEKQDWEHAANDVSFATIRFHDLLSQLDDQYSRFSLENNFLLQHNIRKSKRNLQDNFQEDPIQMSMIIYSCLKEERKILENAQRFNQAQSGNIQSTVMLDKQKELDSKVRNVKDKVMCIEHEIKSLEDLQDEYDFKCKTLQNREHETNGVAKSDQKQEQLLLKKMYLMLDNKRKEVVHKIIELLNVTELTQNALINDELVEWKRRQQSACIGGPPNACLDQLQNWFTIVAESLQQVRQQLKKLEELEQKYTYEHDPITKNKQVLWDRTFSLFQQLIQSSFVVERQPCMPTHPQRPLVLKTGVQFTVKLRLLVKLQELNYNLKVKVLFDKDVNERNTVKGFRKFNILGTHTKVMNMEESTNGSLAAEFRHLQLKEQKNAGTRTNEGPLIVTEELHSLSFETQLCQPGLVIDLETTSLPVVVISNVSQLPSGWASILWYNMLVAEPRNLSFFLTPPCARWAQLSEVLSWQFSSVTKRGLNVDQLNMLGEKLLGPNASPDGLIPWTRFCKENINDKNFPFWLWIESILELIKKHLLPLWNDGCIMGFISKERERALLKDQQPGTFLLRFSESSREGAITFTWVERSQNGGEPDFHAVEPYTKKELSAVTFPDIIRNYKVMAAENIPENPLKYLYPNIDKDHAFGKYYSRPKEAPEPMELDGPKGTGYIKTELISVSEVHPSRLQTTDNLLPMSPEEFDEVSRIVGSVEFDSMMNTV

B1: STAT1-GFP wild type, P42224 1-750 (natural protein)
chain: T1 chain
B2: STAT1-GFP T419R (natural protein, UniProt P42224 1-750, looked up)
chain: T1 chain with T419R
notes: Mutation reported in patients; also called STAT1T419R-eGFP; source: measured in living cells; not shown: eGFP, C-terminal, kept
B3: STAT1-GFP N574I (natural protein, UniProt P42224 1-750, looked up)
chain: T1 chain with N574I
notes: STAT1 with the patient gain-of-function mutation N574I (linker domain); Mutation reported in patients; also called STAT1N574I-eGFP; N571I (as printed in some places); source: measured in living cells; not shown: eGFP, C-terminal, kept
B4: STAT1-GFP R274W (natural protein, UniProt P42224 1-750, looked up)
chain: T1 chain with R274W
notes: STAT1 with the patient gain-of-function mutation R274W (coiled-coil domain); Mutation reported in patients; also called STAT1R274W-eGFP; source: measured in living cells; not shown: eGFP, C-terminal, kept
B5: STAT1-GFP E411A (natural protein, UniProt P42224 1-750, looked up)
chain: T1 chain with E411A
notes: Artificial mutation, not reported in patients; also called STAT1E411A-eGFP; source: measured in living cells; not shown: eGFP, C-terminal, kept
B6: STAT1-GFP R321S (natural protein, UniProt P42224 1-750, looked up)
chain: T1 chain with R321S
notes: Mutation reported in patients; also called STAT1R321S-eGFP; source: measured in living cells; not shown: eGFP, C-terminal, kept
B7: STAT1-GFP Y701A (natural protein, UniProt P42224 1-750, looked up)
chain: T1 chain with Y701A
notes: Non-clinical control; also called STAT1Y701A-eGFP; source: measured in living cells; not shown: eGFP, C-terminal, kept

Legend:
[1] = biological target: T1, STAT1-GFP wild type, P42224; assay: raster image correlation spectroscopy (RICS), molecular brightness; living U3A cells after IFNγ (1 U/μl, 1 h), 37°C; nucleus; brightness as fold of cytoplasmic STAT1 WT; dimers to tetramers; conditions: remark: other sources report otherwise
[2] = biological target: T1, STAT1-GFP wild type, P42224; assay: raster image correlation spectroscopy (RICS), molecular brightness; living U3A cells, unstimulated, 37°C; cytoplasm and nucleus; brightness of STAT1-GFP compared with monomeric GFP; conditions: remark: other sources report otherwise
[3] = biological target: T1, STAT1-GFP wild type, P42224; assay: raster image correlation spectroscopy (RICS), molecular brightness; living U3A cells after IFNγ (1 U/μl, 1 h), 37°C; cytoplasm; brightness as fold of cytoplasmic STAT1 WT; conditions: remark: other sources report otherwise
[4] = biological target: the molecule itself; assay: raster image correlation spectroscopy (RICS), molecular brightness; living U3A cells after IFNγ (1 U/μl, 1 h), 37°C; nucleus; brightness as fold of cytoplasmic STAT1 WT; dimers to tetramers
[5] = biological target: the molecule itself; assay: raster image correlation spectroscopy (RICS), molecular brightness; living U3A cells after IFNγ (1 U/μl, 1 h), 37°C; cytoplasm; brightness as fold of cytoplasmic STAT1 WT
[6] = biological target: the molecule itself; assay: raster image correlation spectroscopy (RICS), molecular brightness; living U3A cells after IFNγ (1 U/μl, 1 h), 37°C; nucleus; brightness as fold of cytoplasmic STAT1 WT; dimers to tetramers; remark: listed apart in the source

Binder	increase of nuclear brightness compared to cytoplasmic STAT1 WT [6] [%]	stoichiometry N [6]	also measured
B1	–	–	relative brightness (fold of cytoplasmic STAT1 WT) [1]: 1.32 A.U.; stoichiometry N [1]: 4; stoichiometry N [2]: 2; relative brightness (fold of cytoplasmic STAT1 WT) [3]: 1 A.U.
B2	–	–	stoichiometry N [4]: 2
B3	7	4	relative brightness (fold of cytoplasmic STAT1 WT) [5]: 0.74 A.U.
B4	17	4	–
B5	–	2	–
B6	11	4	relative brightness (fold of cytoplasmic STAT1 WT) [5]: 0.69 A.U.
B7	–	2	–
